Laboratory results published in patent US20240287138A1 (Merck Sharp & Dohme, published 2024).
Numbered stars: 1 amine (or outer) side, 2 acyl side, 3 side chain; on linkers, the order of the positions; unused ones are H or OH. Bridge positions count the residues as written; N and C are the ends. Square brackets hold non-standard residues; d marks the D form. Primed or numbered codes have the meaning given here. 1S4RAcpc = (1S,4R)-4-Aminocyclopent-2-ene-1-carboxylic acid, O=C([C@@H]1C=C[C@H](N[*:1])C1)[*:2]; 4Pal2F = (S)-2-Amino-3-(3-fluoropyridin-4-yl)propanoic acid, O=C([C@H](Cc1ccncc1F)N[*:1])[*:2]; bhcLeu = (1R,3S)-3-aminocyclopentane-1-carboxylic acid, O=C([C@@H]1CC[C@H](N[*:1])C1)[*:2]; hSOMe = (S)-2-Amino-4-methoxybutanoic acid, COCC[C@H](N[*:1])C(=O)[*:2]; Trp(1-CH2CO) = O=C([C@H](Cc1cn(CC(=O)[*:3])c2ccccc12)N[*:1])[*:2]; Ala(2-carboxypyrimidin-5-yl) = N[C@@H](Cc1cnc(C(=O)O)nc1)C(=O)O; Trp(βS-Me,7-OMe) = COc1cccc2c([C@H](C)[C@H](N)C(=O)O)c[nH]c12; Phe(3R-OH) = O=C([C@@H](N[*:1])[C@H](O[*:3])c1ccccc1)[*:2]; Ala(1-bicyclo(1.1.1)pentyl) = N[C@@H](CC12CC(C1)C2)C(=O)O; NEtdA = N-ethyl-D-alanine, CCN([C@H](C)C(=O)[*:2])[*:1]; Phe(4-SO3H) = N[C@@H](Cc1ccc(S(=O)(=O)O)cc1)C(=O)O; Trp(7-Cl) = N[C@@H](Cc1c[nH]c2c(Cl)cccc12)C(=O)O; Phe(4-CONH2) = NC(=O)c1ccc(C[C@H](N)C(=O)O)cc1; Phe(4-COOH) = N[C@@H](Cc1ccc(C(=O)O)cc1)C(=O)O; Trp(7-aza) = N[C@@H](Cc1c[nH]c2ncccc12)C(=O)O; Pip(5R-OH) = O=C(O)[C@@H]1CC[C@@H](O)CN1; Pip(4-aza) = O=C(O)[C@@H]1CNCCN1; 4Pal = N[C@@H](Cc1ccncc1)C(=O)O; NMeE = CN[C@@H](CCC(=O)O)C(=O)O; dHyp = O=C(O)[C@H]1C[C@H](O)CN1; αMeS = C[C@](N)(CO)C(=O)O; Nle = CCCC[C@H](N)C(=O)O; Pip′ = not defined here; Sar = CNCC(=O)O

T1: TNFR1 on THP-1 Lucia NF-κB cells (UniProt P19438 30-455, limits assumed)
T1 sequence (looked up): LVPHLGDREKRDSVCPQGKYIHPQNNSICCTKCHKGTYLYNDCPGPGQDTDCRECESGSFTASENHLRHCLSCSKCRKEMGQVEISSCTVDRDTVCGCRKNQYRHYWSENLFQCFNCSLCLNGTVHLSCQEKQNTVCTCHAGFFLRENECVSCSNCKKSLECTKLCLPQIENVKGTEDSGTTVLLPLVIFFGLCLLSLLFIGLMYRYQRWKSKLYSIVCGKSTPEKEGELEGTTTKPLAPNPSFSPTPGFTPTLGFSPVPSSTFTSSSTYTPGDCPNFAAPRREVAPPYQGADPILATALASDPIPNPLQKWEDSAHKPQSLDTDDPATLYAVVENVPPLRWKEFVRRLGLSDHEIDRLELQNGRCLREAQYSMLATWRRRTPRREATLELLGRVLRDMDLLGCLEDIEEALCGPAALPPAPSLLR

B1: SEQ ID NO. 181 (peptide)
peptide: cyclo([bhcLeu][Nle][4Pal][Pip(4-aza)]W[NMeE][hSOMe][4Pal][Trp(7-Cl)][αMeS][Phe(4-COOH)]Y[Sar][Trp(βS-Me,7-OMe)])
SMILES: CCCC[C@@H]1NC(=O)[C@@H]2CC[C@@H](C2)NC(=O)[C@H]([C@@H](C)c2c[nH]c3c(OC)cccc23)NC(=O)CN(C)C(=O)[C@H](Cc2ccc(O)cc2)NC(=O)[C@H](Cc2ccc(C(=O)O)cc2)NC(=O)[C@](C)(CO)NC(=O)[C@H](Cc2c[nH]c3c(Cl)cccc23)NC(=O)[C@H](Cc2ccncc2)NC(=O)[C@H](CCOC)NC(=O)[C@H](CCC(=O)O)N(C)C(=O)[C@H](Cc2c[nH]c3ccccc23)NC(=O)[C@@H]2CNCCN2C(=O)[C@H](Cc2ccncc2)NC1=O
B2: SEQ ID NO. 182 (peptide)
peptide: cyclo([1S4RAcpc][Nle][4Pal][Pip(4-aza)]W[NMeE]N[4Pal][Trp(7-Cl)][αMeS][Phe(4-COOH)]Y[Sar][Trp(βS-Me,7-OMe)])
SMILES: CCCC[C@@H]1NC(=O)[C@@H]2C=C[C@@H](C2)NC(=O)[C@H]([C@@H](C)c2c[nH]c3c(OC)cccc23)NC(=O)CN(C)C(=O)[C@H](Cc2ccc(O)cc2)NC(=O)[C@H](Cc2ccc(C(=O)O)cc2)NC(=O)[C@](C)(CO)NC(=O)[C@H](Cc2c[nH]c3c(Cl)cccc23)NC(=O)[C@H](Cc2ccncc2)NC(=O)[C@H](CC(N)=O)NC(=O)[C@H](CCC(=O)O)N(C)C(=O)[C@H](Cc2c[nH]c3ccccc23)NC(=O)[C@@H]2CNCCN2C(=O)[C@H](Cc2ccncc2)NC1=O
B3: SEQ ID NO. 185 (peptide)
peptide: {CH2CO}-[Nle][4Pal][Pip(5R-OH)]W[dHyp]N[Phe(4-COOH)][Trp(7-Cl)][αMeS][Phe(4-CONH2)]Y[Sar][Trp(βS-Me,7-OMe)]C-NH2
modifications: thioether N-14
SMILES: CCCC[C@@H]1NC(=O)CSC[C@@H](C(N)=O)NC(=O)[C@H]([C@@H](C)c2c[nH]c3c(OC)cccc23)NC(=O)CN(C)C(=O)[C@H](Cc2ccc(O)cc2)NC(=O)[C@H](Cc2ccc(C(N)=O)cc2)NC(=O)[C@](C)(CO)NC(=O)[C@H](Cc2c[nH]c3c(Cl)cccc23)NC(=O)[C@H](Cc2ccc(C(=O)O)cc2)NC(=O)[C@H](CC(N)=O)NC(=O)[C@H]2C[C@H](O)CN2C(=O)[C@H](Cc2c[nH]c3ccccc23)NC(=O)[C@@H]2CC[C@@H](O)CN2C(=O)[C@H](Cc2ccncc2)NC1=O
B4: SEQ ID NO. 186 (peptide)
peptide: {CH2CO}-[Nle][4Pal][Pip(5R-OH)]W[NEtdA]N[4Pal][Trp(7-Cl)][αMeS][Phe(4-CONH2)]Y[Sar][Trp(βS-Me,7-OMe)]C-NH2
modifications: thioether N-14
SMILES: CCCC[C@@H]1NC(=O)CSC[C@@H](C(N)=O)NC(=O)[C@H]([C@@H](C)c2c[nH]c3c(OC)cccc23)NC(=O)CN(C)C(=O)[C@H](Cc2ccc(O)cc2)NC(=O)[C@H](Cc2ccc(C(N)=O)cc2)NC(=O)[C@](C)(CO)NC(=O)[C@H](Cc2c[nH]c3c(Cl)cccc23)NC(=O)[C@H](Cc2ccncc2)NC(=O)[C@H](CC(N)=O)NC(=O)[C@@H](C)N(CC)C(=O)[C@H](Cc2c[nH]c3ccccc23)NC(=O)[C@@H]2CC[C@@H](O)CN2C(=O)[C@H](Cc2ccncc2)NC1=O
B5: SEQ ID NO. 190 (peptide)
peptide: cyclo([bhcLeu][Ala(1-bicyclo(1.1.1)pentyl)][4Pal][Pip(4-aza)]W[NMeE]N[4Pal][Trp(7-Cl)][αMeS][Phe(4-COOH)]Y[Sar][Trp(βS-Me,7-OMe)])
SMILES: COc1cccc2c([C@H](C)[C@@H]3NC(=O)CN(C)C(=O)[C@H](Cc4ccc(O)cc4)NC(=O)[C@H](Cc4ccc(C(=O)O)cc4)NC(=O)[C@](C)(CO)NC(=O)[C@H](Cc4c[nH]c5c(Cl)cccc45)NC(=O)[C@H](Cc4ccncc4)NC(=O)[C@H](CC(N)=O)NC(=O)[C@H](CCC(=O)O)N(C)C(=O)[C@H](Cc4c[nH]c5ccccc45)NC(=O)[C@@H]4CNCCN4C(=O)[C@H](Cc4ccncc4)NC(=O)[C@H](CC45CC(C4)C5)NC(=O)[C@@H]4CC[C@@H](C4)NC3=O)c[nH]c12
B6: SEQ ID NO. 191 (peptide)
peptide: cyclo([bhcLeu][Nle][4Pal][Pip(5R-OH)]W[dHyp]N[Phe(4-COOH)][Trp(7-Cl)][αMeS][Phe(4-CONH2)][Ala(2-carboxypyrimidin-5-yl)][Sar][Trp(βS-Me,7-OMe)])
SMILES: CCCC[C@@H]1NC(=O)[C@@H]2CC[C@@H](C2)NC(=O)[C@H]([C@@H](C)c2c[nH]c3c(OC)cccc23)NC(=O)CN(C)C(=O)[C@H](Cc2cnc(C(=O)O)nc2)NC(=O)[C@H](Cc2ccc(C(N)=O)cc2)NC(=O)[C@](C)(CO)NC(=O)[C@H](Cc2c[nH]c3c(Cl)cccc23)NC(=O)[C@H](Cc2ccc(C(=O)O)cc2)NC(=O)[C@H](CC(N)=O)NC(=O)[C@H]2C[C@H](O)CN2C(=O)[C@H](Cc2c[nH]c3ccccc23)NC(=O)[C@@H]2CC[C@@H](O)CN2C(=O)[C@H](Cc2ccncc2)NC1=O
B7: SEQ ID NO. 197 (peptide)
peptide: cyclo([bhcLeu][Nle][4Pal][Pip(4-aza)][Trp(1-CH2CO)][NMeE]N[4Pal][Trp(7-Cl)][αMeS][Phe(4-COOH)]Y[Sar][Trp(βS-Me,7-OMe)])
SMILES: CCCC[C@@H]1NC(=O)[C@@H]2CC[C@@H](C2)NC(=O)[C@H]([C@@H](C)c2c[nH]c3c(OC)cccc23)NC(=O)CN(C)C(=O)[C@H](Cc2ccc(O)cc2)NC(=O)[C@H](Cc2ccc(C(=O)O)cc2)NC(=O)[C@](C)(CO)NC(=O)[C@H](Cc2c[nH]c3c(Cl)cccc23)NC(=O)[C@H](Cc2ccncc2)NC(=O)[C@H](CC(N)=O)NC(=O)[C@H](CCC(=O)O)N(C)C(=O)[C@H](Cc2cn(CC(=O)O)c3ccccc23)NC(=O)[C@@H]2CNCCN2C(=O)[C@H](Cc2ccncc2)NC1=O
B8: SEQ ID NO. 198 (peptide)
peptide: cyclo([bhcLeu][Nle][4Pal][Pip(4-aza)]W[NMeE]N[4Pal2F][Trp(7-Cl)][αMeS][Phe(4-COOH)]Y[Sar][Trp(βS-Me,7-OMe)])
SMILES: CCCC[C@@H]1NC(=O)[C@@H]2CC[C@@H](C2)NC(=O)[C@H]([C@@H](C)c2c[nH]c3c(OC)cccc23)NC(=O)CN(C)C(=O)[C@H](Cc2ccc(O)cc2)NC(=O)[C@H](Cc2ccc(C(=O)O)cc2)NC(=O)[C@](C)(CO)NC(=O)[C@H](Cc2c[nH]c3c(Cl)cccc23)NC(=O)[C@H](Cc2ccncc2F)NC(=O)[C@H](CC(N)=O)NC(=O)[C@H](CCC(=O)O)N(C)C(=O)[C@H](Cc2c[nH]c3ccccc23)NC(=O)[C@@H]2CNCCN2C(=O)[C@H](Cc2ccncc2)NC1=O
B9: SEQ ID NO. 199 (peptide)
peptide: cyclo([bhcLeu][Nle][4Pal][Pip(4-aza)]W[NMeE]N[4Pal][Trp(7-Cl)][αMeS][Phe(4-SO3H)]Y[Sar][Trp(βS-Me,7-OMe)])
SMILES: CCCC[C@@H]1NC(=O)[C@@H]2CC[C@@H](C2)NC(=O)[C@H]([C@@H](C)c2c[nH]c3c(OC)cccc23)NC(=O)CN(C)C(=O)[C@H](Cc2ccc(O)cc2)NC(=O)[C@H](Cc2ccc(S(=O)(=O)O)cc2)NC(=O)[C@](C)(CO)NC(=O)[C@H](Cc2c[nH]c3c(Cl)cccc23)NC(=O)[C@H](Cc2ccncc2)NC(=O)[C@H](CC(N)=O)NC(=O)[C@H](CCC(=O)O)N(C)C(=O)[C@H](Cc2c[nH]c3ccccc23)NC(=O)[C@@H]2CNCCN2C(=O)[C@H](Cc2ccncc2)NC1=O
B10: SEQ ID NO. 201 (peptide)
peptide: cyclo([bhcLeu][Nle][4Pal2F][Pip(4-aza)]W[NMeE]N[4Pal][Trp(7-Cl)][αMeS][Phe(4-COOH)]Y[Sar][Trp(βS-Me,7-OMe)])
SMILES: CCCC[C@@H]1NC(=O)[C@@H]2CC[C@@H](C2)NC(=O)[C@H]([C@@H](C)c2c[nH]c3c(OC)cccc23)NC(=O)CN(C)C(=O)[C@H](Cc2ccc(O)cc2)NC(=O)[C@H](Cc2ccc(C(=O)O)cc2)NC(=O)[C@](C)(CO)NC(=O)[C@H](Cc2c[nH]c3c(Cl)cccc23)NC(=O)[C@H](Cc2ccncc2)NC(=O)[C@H](CC(N)=O)NC(=O)[C@H](CCC(=O)O)N(C)C(=O)[C@H](Cc2c[nH]c3ccccc23)NC(=O)[C@@H]2CNCCN2C(=O)[C@H](Cc2ccncc2F)NC1=O
B11: SEQ ID NO. 208 (peptide)
peptide: {CH2CO}-[Nle][4Pal][Pip′]W[NMeE]N[4Pal][Trp(7-Cl)][αMeS][Phe(4-COOH)]Y[Sar][SbMeW7Me]C-NH2
modifications: thioether N-14
B12: SEQ ID NO. 211 (peptide)
peptide: {CH2CO}-[Nle][4Pal][Phe(3R-OH)][Trp(7-aza)][NMeE]N[4Pal][Trp(7-Cl)][αMeS][Phe(4-COOH)]Y[Sar][Trp(βS-Me,7-OMe)]C-NH2
modifications: thioether N-14
SMILES: CCCC[C@@H]1NC(=O)CSC[C@@H](C(N)=O)NC(=O)[C@H]([C@@H](C)c2c[nH]c3c(OC)cccc23)NC(=O)CN(C)C(=O)[C@H](Cc2ccc(O)cc2)NC(=O)[C@H](Cc2ccc(C(=O)O)cc2)NC(=O)[C@](C)(CO)NC(=O)[C@H](Cc2c[nH]c3c(Cl)cccc23)NC(=O)[C@H](Cc2ccncc2)NC(=O)[C@H](CC(N)=O)NC(=O)[C@H](CCC(=O)O)N(C)C(=O)[C@H](Cc2c[nH]c3ncccc23)NC(=O)[C@H]([C@H](O)c2ccccc2)NC(=O)[C@H](Cc2ccncc2)NC1=O

Molecular target: T1, TNFR1 on THP-1 Lucia NF-κB cells
Assay: cell-based or functional assay

Binder | THP-1 IC50
B1 | 1.2 nM
B2 | 0.9 nM
B3 | 0.9 nM
B4 | 1.9 nM
B5 | 1.6 nM
B6 | 1.6 nM
B7 | 0.7 nM
B8 | 0.8 nM
B9 | 1 nM
B10 | 0.9 nM
B11 | 4 nM
B12 | 3.3 nM
